# Results published in PMC9688808, “Discovery of Novel Lin28 Inhibitors to Suppress Cancer Cell Stemness” (Cancers, 2022).
# T1: Lin28B ZKD (Homo sapiens, UniProt Q6ZN17 110-174)
# T1 sequence: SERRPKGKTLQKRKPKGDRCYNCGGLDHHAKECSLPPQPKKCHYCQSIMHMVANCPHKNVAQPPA
# Tests used:
# Lin28B ZKD [1] = target: T1, Lin28B ZKD; assay: fluorescence polarization; 1 nM probe, 1 nM-50 uM protein; dose-dependent increase; EMSA: 20 mM HEPES-NaOH pH 7.4, 2 mM DTT, 3 mM MgCl2, 0.05% NP-40, protease inhibitors, 0.1 ug poly[dI:dC], 30 min 37 C (Methods 300 nM probe, legends 10 nM); FP: 30 uL, room temperature, 20 min, buffer not stated; conditions: protein: recombinant; tags: His
# Lin28B ZKD [2] = target: T1, Lin28B ZKD; assay: competition; fluorescence polarization; 1 nM-50 uM unlabeled oligo vs 1 nM FAM probe, 10 uM protein; dose-dependent reduction; EMSA: 20 mM HEPES-NaOH pH 7.4, 2 mM DTT, 3 mM MgCl2, 0.05% NP-40, protease inhibitors, 0.1 ug poly[dI:dC], 30 min 37 C (Methods 300 nM probe, legends 10 nM); FP: 30 uL, room temperature, 20 min, buffer not stated; conditions: protein: recombinant; tags: His
Binder,binding result (Lin28B ZKD [1]),binding result (Lin28B ZKD [2])
UUAGGGCACGAGAUUUUGCCCACAAGGAGUU (structured_RNA) [FAM-Let-7 probe],binds,–
UUAGGGCACGAGAUUUUGCCCACAAGGAGUU (structured_RNA) [non-labeled Let-7 oligo (FP competitor)],–,binds
